biological target: T1, mouse ADAMTS7 (Mus musculus, UniProt Q68SA9); test: TMT10 TAILS N-terminomics, HUVEC experiment (process replicates, trypsin/AspN digest); assay type: cell-based, human; settings: HUVEC TAILS HC; log fold change of N-terminal peptide, Ad-mADAMTS7 WT over Luc
T1 construct: Full-length mouse Adamts7 1-1857 (Uniprot Q68SA9, WT or E373Q catalytic mutant); expressed in transfected cells; host or cells: Human Coronary Artery Smooth Muscle Cells (HCA-SMC, Lonza), adenovirus 50 MOI
T1 sequence (Q68SA9 221-1657): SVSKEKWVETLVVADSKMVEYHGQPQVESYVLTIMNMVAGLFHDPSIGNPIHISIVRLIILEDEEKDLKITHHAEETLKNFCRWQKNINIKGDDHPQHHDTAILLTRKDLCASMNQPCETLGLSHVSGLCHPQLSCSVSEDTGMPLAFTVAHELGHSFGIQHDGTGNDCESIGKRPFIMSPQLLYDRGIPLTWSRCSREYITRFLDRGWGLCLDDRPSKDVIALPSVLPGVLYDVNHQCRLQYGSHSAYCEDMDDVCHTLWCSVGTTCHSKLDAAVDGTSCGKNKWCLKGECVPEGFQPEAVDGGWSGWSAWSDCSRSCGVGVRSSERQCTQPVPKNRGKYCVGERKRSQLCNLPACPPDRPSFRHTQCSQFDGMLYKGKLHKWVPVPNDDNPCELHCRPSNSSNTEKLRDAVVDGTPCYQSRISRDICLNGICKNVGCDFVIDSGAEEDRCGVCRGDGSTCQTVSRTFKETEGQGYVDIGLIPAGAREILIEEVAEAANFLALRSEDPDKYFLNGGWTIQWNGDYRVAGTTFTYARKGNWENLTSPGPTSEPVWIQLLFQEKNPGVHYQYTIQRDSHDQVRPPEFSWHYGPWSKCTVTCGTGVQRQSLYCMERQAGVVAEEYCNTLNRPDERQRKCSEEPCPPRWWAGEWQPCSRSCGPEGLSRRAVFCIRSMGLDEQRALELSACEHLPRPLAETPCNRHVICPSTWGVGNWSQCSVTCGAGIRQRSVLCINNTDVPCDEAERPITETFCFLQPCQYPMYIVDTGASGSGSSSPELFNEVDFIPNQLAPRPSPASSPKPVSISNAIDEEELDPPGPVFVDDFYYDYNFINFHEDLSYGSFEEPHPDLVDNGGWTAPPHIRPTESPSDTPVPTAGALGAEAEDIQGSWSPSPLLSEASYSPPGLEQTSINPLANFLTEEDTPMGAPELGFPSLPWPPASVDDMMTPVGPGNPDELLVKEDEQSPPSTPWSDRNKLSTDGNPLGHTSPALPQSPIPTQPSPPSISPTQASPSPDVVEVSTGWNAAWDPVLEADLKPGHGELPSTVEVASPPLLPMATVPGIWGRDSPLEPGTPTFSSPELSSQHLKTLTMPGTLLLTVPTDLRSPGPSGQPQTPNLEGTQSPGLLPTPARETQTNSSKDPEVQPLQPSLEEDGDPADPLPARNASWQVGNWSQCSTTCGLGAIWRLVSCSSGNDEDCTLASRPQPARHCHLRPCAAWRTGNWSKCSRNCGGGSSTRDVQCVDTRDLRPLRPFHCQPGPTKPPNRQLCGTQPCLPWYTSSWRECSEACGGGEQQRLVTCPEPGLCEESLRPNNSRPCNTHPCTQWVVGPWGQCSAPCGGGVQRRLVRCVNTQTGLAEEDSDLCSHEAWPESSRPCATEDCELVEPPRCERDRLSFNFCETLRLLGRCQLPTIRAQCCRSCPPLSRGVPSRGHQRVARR
How it was run: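 Full-length mouse ADAMTS7 (WT or E373Q mutant, C-terminal 3xFLAG) or luciferase was transduced via adenovirus, 50 MOI, into HCA-SMC (SMC1, SMC2) or HUVEC. SMC1: pooled media, technical triplicates 400 ug; SMC2: process triplicates 300 ug; HUVEC: process triplicates 200 ug, bFGF2 10 ng/ml.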

Row | Substance | logFC.mWT.over.Luc
1 | MAP4_815 (AVASTGPSSR; listed as Homo sapiens) | 2.87
2 | MAP4_816 (VASTGPSSR; listed as Homo sapiens) | 2.13
3 | NID1_360 (FHQQHPQVI; listed as Homo sapiens) | 1.48
4 | NUCB1_389 (LQQAVLHMEQR; listed as Homo sapiens) | 1.32
5 | SERBP1_56 (QAAAQTNSNAAGKQLR; listed as Homo sapiens) | 1.23
6 | SPOCK1_27 (LAGGAGPNHGNFL; listed as Homo sapiens) | 0.90
7 | THBS2_290 (LSENLKR; listed as Homo sapiens) | 5.05

Further lines, results first:

Row | logFC.mWT.over.Luc | Substance
8 | 3.05 | COL18A1_1505 (LQPPVVQLHDSNPYPR; listed as Homo sapiens)
9 | 1.13 | LTBP2_79 (VAGLQPVER; listed as Homo sapiens)
10 | 1.84 | LTBP2_250 (SAAGEGTLAR; listed as Homo sapiens)
11 | 2.47 | LTBP2_502 (LVENSVETRPPPWLPASPGHSLW; listed as Homo sapiens)
12 | 1.54 | LTBP3_208 (FLVPLGPGQISA; listed as Homo sapiens)
13 | 2.80 | NID2_291 (HSSVPLGR; listed as Homo sapiens)
14 | 2.71 | NUCB1_317 (FLASTQR; listed as Homo sapiens)
15 | 1.04 | SRGN_59 (LLPGESNKIPR; listed as Homo sapiens)

Reference: patent publication US20240368668A1, “SUBSTRATES AND BIOMARKERS OF ADAMTS7” (The Broad Institute, Inc., priority 2021, published 2024)
